Assay results taken from US5985616, “Chimeric mammalian NPY Y5 receptors” (Schering Corporation, dated 1999).

T1: rat/human hybrid NPY Y5 receptor (rat/human chimera)
T1 chain: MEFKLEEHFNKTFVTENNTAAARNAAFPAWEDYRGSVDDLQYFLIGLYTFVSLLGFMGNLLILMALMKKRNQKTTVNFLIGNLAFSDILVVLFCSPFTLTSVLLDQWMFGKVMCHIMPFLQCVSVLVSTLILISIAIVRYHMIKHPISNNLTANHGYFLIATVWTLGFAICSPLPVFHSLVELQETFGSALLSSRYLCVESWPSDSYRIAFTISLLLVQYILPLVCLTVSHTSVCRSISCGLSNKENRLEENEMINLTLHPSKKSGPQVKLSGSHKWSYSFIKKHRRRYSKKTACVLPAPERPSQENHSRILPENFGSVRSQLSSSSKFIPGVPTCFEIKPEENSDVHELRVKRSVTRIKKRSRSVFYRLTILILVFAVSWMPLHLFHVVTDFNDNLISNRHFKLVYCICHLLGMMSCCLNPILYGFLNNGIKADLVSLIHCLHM


Key:
[1] = target: T1, rat/human hybrid NPY Y5 receptor; assay: competition with 0.1 nM [125I]PYY, membranes of COS1 cells transiently expressing the receptor
Method: (§1) PYY and 2.5–5 ug of membrane protein (50 ul final volume). […] PYY and various concentrations of competing peptides (200 ul final volume). […] Binding assays were incubated at room temperature for 90 minutes and were terminated by rapid vacuum filtration through glass fiber filters in 96-well format (Multiscreen FB Filter Plates, Millipore, Bedford, Mass. or Unifilter-96 GF/C, Packard, Meriden, Conn.) Prior to filtration the glass fiber filters were pretreated with 100 ul of 0.3 % polyethylenimine. Each filter was then washed 3 times with 100 ul of PBS. Radioactivity trapped on the filters was then counted by standard gamma counting techniques.
(§2) Peptide affinities were measured in competition binding assays with membranes from COS1 cells transiently expressing the human Y_5 and rat/human hybrid Y_5 receptors.

human NPY Y5 receptor [2] = target: T2, human NPY Y5 receptor (human, UniProt Q15761); assay: as above
Method: as §1, §2

[3] = target: T1, rat/human hybrid NPY Y5 receptor; assay: radioligand binding at 100 pM [125I]PYY, membranes of COS1 cells transiently expressing the construct
Method: as §1
(§3) All receptors were expressed transiently in COS1 cells.

human NPY Y5 receptor [4] = target: T2, human NPY Y5 receptor; assay: as above
Method: as §1, §3

[5] = target: rat NPY Y5 receptor expressed from pCR3.1-rY5A (rat, UniProt Q63634); assay: as above
Method: as §1, §3

Ki [1]	Ki (human NPY Y5 receptor [2])	Level of Expression (fmol/mg protein), radioligand bound at 100 pM [3]	Level of Expression (fmol/mg protein), radioligand bound at 100 pM (human NPY Y5 receptor [4])	Level of Expression (fmol/mg protein), radioligand bound at 100 pM [5]	Binder
75.6 nM	60 nM				APLEPMYPGDYATHEQRAQYETQLRRYINTLTRPRY (ligand) [Rat PP]
2.86 nM					APLEPVYPGDNATPEQMAQYAADLRRYINMLTRPRY (ligand) [Human PP]
		298 fmol/mg protein	103 fmol/mg protein	100 fmol/mg protein	[125I] porcine peptide YY (ligand, 125I label) peptide: not shown
